Experimental data taken from IntAct's records for PubMed 31515488.

B1: Calcium-binding and coiled-coil domain-containing protein 2 (Homo sapiens), Q13137 (parent)
chain: MEETIKDPPTSAVLLDHCHFSQVIFNSVEKFYIPGGDVTCHYTFTQHFIPRRKDWIGIFRVGWKTTREYYTFMWVTLPIDLNNKSAKQQEVQFKAYYLPKDDEYYQFCYVDEDGVVRGASIPFQFRPENEEDILVVTTQGEVEEIEQHNKELCKENQELKDSCISLQKQNSDMQAELQKKQEELETLQSINKKLELKVKEQKDYWETELLQLKEQNQKMSSENEKMGIRVDQLQAQLSTQEKEMEKLVQGDQDKTEQLEQLKKENDHLFLSLTEQRKDQKKLEQTVEQMKQNETTAMKKQQELMDENFDLSKRLSENEIICNALQRQKERLEGENDLLKRENSRLLSYMGLDFNSLPYQVPTSDEGGARQNPGLAYGNPYSGIQESSSPSPLSIKKCPICKADDICDHTLEQQQMQPLCFNCPICDKIFPATEKQIFEDHVFCHSL
partner: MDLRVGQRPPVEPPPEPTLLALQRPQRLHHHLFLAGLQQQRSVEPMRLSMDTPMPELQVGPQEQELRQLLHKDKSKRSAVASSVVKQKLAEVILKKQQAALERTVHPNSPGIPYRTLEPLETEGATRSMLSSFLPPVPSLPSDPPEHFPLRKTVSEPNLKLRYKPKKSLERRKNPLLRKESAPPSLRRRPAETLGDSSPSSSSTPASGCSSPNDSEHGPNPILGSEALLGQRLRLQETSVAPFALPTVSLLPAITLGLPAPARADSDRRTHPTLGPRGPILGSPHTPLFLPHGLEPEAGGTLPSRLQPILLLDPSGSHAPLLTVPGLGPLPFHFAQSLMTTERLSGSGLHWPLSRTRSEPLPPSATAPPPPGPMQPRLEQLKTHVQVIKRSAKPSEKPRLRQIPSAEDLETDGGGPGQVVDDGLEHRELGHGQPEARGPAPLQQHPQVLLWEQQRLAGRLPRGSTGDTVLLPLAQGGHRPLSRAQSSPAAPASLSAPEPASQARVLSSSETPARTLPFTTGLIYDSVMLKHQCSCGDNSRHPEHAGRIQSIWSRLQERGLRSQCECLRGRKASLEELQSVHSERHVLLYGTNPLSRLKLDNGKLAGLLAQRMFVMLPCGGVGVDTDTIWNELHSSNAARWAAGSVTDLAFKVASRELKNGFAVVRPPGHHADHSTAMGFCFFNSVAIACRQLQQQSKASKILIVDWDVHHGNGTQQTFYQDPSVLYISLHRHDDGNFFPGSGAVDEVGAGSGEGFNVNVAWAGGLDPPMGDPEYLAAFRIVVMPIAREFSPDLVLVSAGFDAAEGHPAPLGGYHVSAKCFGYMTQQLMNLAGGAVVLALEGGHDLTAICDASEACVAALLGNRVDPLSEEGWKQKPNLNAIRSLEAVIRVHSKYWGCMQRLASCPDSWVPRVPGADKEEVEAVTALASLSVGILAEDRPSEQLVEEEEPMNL
B2: Zinc finger protein 488 (Homo sapiens), Q96MN9 (parent)
chain: MPEWPPCLSVAPALVITMAAGKGAPLSPSAENRWRLSEPELGRGCKPVLLEKTNRLGPEAAVGRAGRDVGSAELALLVAPGKPRPGKPLPPKTRGEQRQSAFTELPRMKDRQVDAQAQEREHDDPTGQPGAPQLTQNIPRGPAGSKVFSVWPSGARSEQRSAFSKPTKRPAERPELTSVFPAGESADALGELSGLLNTTDLACWGRLSTPKLLVGDLWNLQALPQNAPLCSTFLGAPTLWLEHTQAQVPPPSSSSTTSWALLPPTLTSLGLSTQNWCAKCNLSFRLTSDLVFHMRSHHKKEHAGPDPHSQKRREEALACPVCQEHFRERHHLSRHMTSHS
partner: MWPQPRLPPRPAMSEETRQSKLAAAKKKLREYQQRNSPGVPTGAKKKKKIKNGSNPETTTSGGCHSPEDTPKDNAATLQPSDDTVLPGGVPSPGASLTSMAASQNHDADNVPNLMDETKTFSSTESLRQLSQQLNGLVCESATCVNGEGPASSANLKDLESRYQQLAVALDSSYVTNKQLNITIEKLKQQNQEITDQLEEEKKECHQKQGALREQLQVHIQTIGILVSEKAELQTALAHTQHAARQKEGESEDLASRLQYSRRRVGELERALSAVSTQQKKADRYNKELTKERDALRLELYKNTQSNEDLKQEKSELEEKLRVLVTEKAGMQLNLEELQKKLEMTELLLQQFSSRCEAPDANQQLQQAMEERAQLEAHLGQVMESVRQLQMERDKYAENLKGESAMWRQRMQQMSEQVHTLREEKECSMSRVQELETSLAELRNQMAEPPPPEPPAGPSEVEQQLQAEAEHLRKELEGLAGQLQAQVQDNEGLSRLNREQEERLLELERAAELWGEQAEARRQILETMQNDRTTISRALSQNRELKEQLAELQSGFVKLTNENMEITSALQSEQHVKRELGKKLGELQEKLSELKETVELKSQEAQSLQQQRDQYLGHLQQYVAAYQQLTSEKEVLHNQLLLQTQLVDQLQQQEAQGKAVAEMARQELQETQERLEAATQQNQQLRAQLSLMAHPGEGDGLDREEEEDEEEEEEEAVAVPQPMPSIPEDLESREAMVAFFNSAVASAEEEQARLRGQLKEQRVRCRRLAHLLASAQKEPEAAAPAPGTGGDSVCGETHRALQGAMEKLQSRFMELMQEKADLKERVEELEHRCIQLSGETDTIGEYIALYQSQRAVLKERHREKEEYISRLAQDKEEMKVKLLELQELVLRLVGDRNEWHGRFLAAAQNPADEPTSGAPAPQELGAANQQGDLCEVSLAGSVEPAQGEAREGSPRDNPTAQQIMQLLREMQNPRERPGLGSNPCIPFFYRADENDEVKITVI
B3: Melanoma-associated antigen F1 (Homo sapiens), Q9HAY2 (parent)
chain: MLQTPESRGLPVPQAEGEKDGGHDGETRAPTASQERPKEELGAGREEGAAEPALTRKGARALAAKALARRRAYRRLNRTVAELVQFLLVKDKKKSPITRSEMVKYVIGDLKILFPDIIARAAEHLRYVFGFELKQFDRKHHTYILINKLKPLEEEEEEDLGGDGPRLGLLMMILGLIYMRGNSAREAQVWEMLRRLGVQPSKYHFLFGYPKRLIMEDFVQQRYLSYRRVPHTNPPEYEFSWGPRSNLEISKMEVLGFVAKLHKKEPQHWPVQYREALADEADRARAKARAEASMRARASARAGIHLW
B4: Serine/threonine-protein kinase PAK 5 (Homo sapiens), Q9P286 (parent)
chain: MFGKKKKKIEISGPSNFEHRVHTGFDPQEQKFTGLPQQWHSLLADTANRPKPMVDPSCITPIQLAPMKTIVRGNKPCKETSINGLLEDFDNISVTRSNSLRKESPPTPDQGASSHGPGHAEENGFITFSQYSSESDTTADYTTEKYREKSLYGDDLDPYYRGSHAAKQNGHVMKMKHGEAYYSEVKPLKSDFARFSADYHSHLDSLSKPSEYSDLKWEYQRASSSSPLDYSFQFTPSRTAGTSGCSKESLAYSESEWGPSLDDYDRRPKSSYLNQTSPQPTMRQRSRSGSGLQEPMMPFGASAFKTHPQGHSYNSYTYPRLSEPTMCIPKVDYDRAQMVLSPPLSGSDTYPRGPAKLPQSQSKSGYSSSSHQYPSGYHKATLYHHPSLQSSSQYISTASYLSSLSLSSSTYPPPSWGSSSDQQPSRVSHEQFRAALQLVVSPGDPREYLANFIKIGEGSTGIVCIATEKHTGKQVAVKKMDLRKQQRRELLFNEVVIMRDYHHDNVVDMYSSYLVGDELWVVMEFLEGGALTDIVTHTRMNEEQIATVCLSVLRALSYLHNQGVIHRDIKSDSILLTSDGRIKLSDFGFCAQVSKEVPKRKSLVGTPYWMAPEVISRLPYGTEVDIWSLGIMVIEMIDGEPPYFNEPPLQAMRRIRDSLPPRVKDLHKVSSVLRGFLDLMLVREPSQRATAQELLGHPFLKLAGPPSCIVPLMRQYRHH
partner: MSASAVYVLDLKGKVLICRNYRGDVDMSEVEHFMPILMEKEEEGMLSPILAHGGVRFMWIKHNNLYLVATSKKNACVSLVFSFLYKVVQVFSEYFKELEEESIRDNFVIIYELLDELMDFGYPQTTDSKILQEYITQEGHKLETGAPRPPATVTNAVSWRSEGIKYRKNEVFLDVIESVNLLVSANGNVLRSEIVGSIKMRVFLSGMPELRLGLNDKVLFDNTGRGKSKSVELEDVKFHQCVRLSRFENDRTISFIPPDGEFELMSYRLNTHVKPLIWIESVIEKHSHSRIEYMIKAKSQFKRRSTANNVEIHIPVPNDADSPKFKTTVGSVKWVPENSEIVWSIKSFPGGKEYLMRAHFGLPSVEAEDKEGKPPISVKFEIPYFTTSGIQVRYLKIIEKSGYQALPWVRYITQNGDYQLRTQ

Variants of: B1
Details: with hdac7_human HDAC7, Q8WUI4
T273A was tested, and the “effect of a mutation on the interaction” value was “with no effect”.

Variants of: B2
Details: with goga2_human GOLGA2, Q08379
For A72V, the “effect of a mutation on the interaction” value was “with no effect”. C230R was tested, and the “effect of a mutation on the interaction” value was “with no effect”.

Variants of: B3
Details: with mdfi_human MDFI
For K93R, the “effect of a mutation on the interaction” value was “with no effect”.

Variants of: B4
Details: with ap1m1_human AP1M1, Q9BXS5
For V604I, the “effect of a mutation on the interaction” value was “with no effect”.
